According to patent publication US20100273979A1:

Tests used:
[1] = target: human serum albumin (human), P02768; assay: SPR (Biacore2000), HSA immobilised (450 RU), analyte 4-400 nM
[2] = target: human serum albumin (human), P02768; assay: SPR (Biacore2000), HSA immobilised on CM-5, analyte injected at 25 nM; qualitative
[3] = target: mouse serum albumin (mouse), P07724; assay: SPR (Biacore2000), MSA immobilised on CM-5, analyte injected at 25 nM; qualitative
Sequence of mouse serum albumin (mouse), P07724 (P07724 25-608 limits assumed): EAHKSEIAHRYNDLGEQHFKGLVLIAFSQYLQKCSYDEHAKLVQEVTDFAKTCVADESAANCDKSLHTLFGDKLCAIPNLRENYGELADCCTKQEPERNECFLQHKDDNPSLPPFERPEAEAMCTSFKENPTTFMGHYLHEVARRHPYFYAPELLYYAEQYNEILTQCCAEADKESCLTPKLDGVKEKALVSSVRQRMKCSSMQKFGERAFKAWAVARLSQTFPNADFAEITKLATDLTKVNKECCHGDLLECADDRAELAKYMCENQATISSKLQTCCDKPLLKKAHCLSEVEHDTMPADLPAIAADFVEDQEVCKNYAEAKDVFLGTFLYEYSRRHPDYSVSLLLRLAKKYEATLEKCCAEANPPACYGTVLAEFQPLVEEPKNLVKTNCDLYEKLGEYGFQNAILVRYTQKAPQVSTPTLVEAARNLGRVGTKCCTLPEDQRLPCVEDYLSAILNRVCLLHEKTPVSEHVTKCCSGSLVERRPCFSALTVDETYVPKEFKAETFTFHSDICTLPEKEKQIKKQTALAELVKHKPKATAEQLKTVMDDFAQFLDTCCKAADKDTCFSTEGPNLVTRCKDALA

LAEAKVLANRELDKYGVSDYYKNLINNAKTVEGVKALIDEILAALP (modifications not checked) showed a Kd [1] of 1.2 nM, a koff [1] of 0.00065 s⁻¹ and a kon [1] of 550000 M⁻¹ s⁻¹. It also gave a Kd [2] of 1.5 nM and a Kd [3] of 4.9 nM.
